In test [1] the target is mouse 4-1BB on activated mouse splenocytes (mouse) (UniProt P20334). As to the kind of experiment: flow cytometry on activated mouse splenocytes, gate CD8+ T cells; PE anti-human IgG Fc-gamma F(ab')2; median fluorescence, baseline corrected.
The target is the same in test [2]. As to the kind of experiment: flow cytometry on activated mouse splenocytes, gate CD4+ T cells; PE anti-human IgG Fc-gamma F(ab')2; median fluorescence, baseline corrected.

mouse 4-1BB on activated mouse splenocytes (mouse), sequence (P20334 24-256): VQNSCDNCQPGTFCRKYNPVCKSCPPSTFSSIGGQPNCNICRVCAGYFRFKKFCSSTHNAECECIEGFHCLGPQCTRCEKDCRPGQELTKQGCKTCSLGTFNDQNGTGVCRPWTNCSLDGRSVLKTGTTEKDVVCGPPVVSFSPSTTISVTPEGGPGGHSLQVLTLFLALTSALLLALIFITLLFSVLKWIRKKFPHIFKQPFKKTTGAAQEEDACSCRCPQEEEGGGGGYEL

By EC50 (read off the curve) is commonly meant the concentration that produces a half-maximal response. High values mean a need for much substance, low ones an effect from little substance. As for anti-mouse Lob12.3 huIgG1 (antibody), the EC50 (read off the curve) is 0.1 nM in test [1] and 0.09 nM in test [2].

(Values after US20200270321A1.)
